Measured values: publication PMC4794721, “Improved Production of Active Streptomyces griseus Trypsin with a Novel Auto-Catalyzed Strategy” (Scientific Reports, 2016)

Substrate: N=C(N)NCCCC(NC(=O)c1ccccc1)C(=O)Nc1ccc([N+](=O)[O-])cc1
Assay: purified protein
Details: 50 mM Tris-HCl, pH 8.0, 37 °C (amidase assay)

B1: SGT (Streptomyces griseus trypsin) (Streptomyces griseus) (protein)
chain: VVGGTRAAQGEFPFMVRLSMGCGGALYAQDIVLTAAHCVSGSGNNTSITATGGVVDLQSSSAVKVRSTKVLQAPGYNGTGKDWALIKLAQPINQPTLKIATTTAYNQGTFTVAGWGANREGGSQQRYLLKANVPFVSDAACRSAYGNELVANEEICAGYPDTGGVDTCQGDSGGPMFRKDNADEWIQVGIVSWGYGCARPGYPGVYTEVSTFASAIASAARTL
  Km: 7.88 ± 0.16 × 10^−2 mM
